Test results published in article PMC5490839 (Nature immunology, 2016).
Where no end group is shown, it is not given here. The star is where a group is joined. Maleimide‑PEG2‑Biotin = EZ Link Maleimide-PEG2-Biotin, O=C(CCCC[C@@H]1SC[C@@H]2NC(=O)N[C@@H]21)NCCOCCOCCNC(=O)CCN1C(=O)CC(*)C1=O

Experiments:
[1] = target: T1, Zap70 K369A (full length) (human, UniProt P43403 1-619, K369A); assay: ELISA
T1 sequence (looked up): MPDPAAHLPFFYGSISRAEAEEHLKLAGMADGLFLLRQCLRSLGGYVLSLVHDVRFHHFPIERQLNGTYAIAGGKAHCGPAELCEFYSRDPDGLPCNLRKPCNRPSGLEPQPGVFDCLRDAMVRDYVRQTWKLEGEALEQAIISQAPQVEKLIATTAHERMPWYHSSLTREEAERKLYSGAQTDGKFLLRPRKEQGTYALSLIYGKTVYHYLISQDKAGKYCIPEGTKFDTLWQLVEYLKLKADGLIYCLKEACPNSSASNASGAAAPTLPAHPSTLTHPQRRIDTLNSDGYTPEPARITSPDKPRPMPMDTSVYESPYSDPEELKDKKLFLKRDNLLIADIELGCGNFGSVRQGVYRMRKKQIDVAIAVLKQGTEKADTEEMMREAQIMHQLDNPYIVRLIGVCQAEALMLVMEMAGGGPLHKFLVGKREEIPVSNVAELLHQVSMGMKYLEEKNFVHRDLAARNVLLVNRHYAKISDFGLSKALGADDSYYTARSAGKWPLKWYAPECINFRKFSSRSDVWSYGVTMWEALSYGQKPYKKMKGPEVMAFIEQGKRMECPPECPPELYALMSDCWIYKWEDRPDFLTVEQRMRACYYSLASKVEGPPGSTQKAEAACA

[2] = target: T2, Zap70 K369R (full length) (human, UniProt P43403 1-619, K369R); assay: ELISA
T2 sequence (looked up): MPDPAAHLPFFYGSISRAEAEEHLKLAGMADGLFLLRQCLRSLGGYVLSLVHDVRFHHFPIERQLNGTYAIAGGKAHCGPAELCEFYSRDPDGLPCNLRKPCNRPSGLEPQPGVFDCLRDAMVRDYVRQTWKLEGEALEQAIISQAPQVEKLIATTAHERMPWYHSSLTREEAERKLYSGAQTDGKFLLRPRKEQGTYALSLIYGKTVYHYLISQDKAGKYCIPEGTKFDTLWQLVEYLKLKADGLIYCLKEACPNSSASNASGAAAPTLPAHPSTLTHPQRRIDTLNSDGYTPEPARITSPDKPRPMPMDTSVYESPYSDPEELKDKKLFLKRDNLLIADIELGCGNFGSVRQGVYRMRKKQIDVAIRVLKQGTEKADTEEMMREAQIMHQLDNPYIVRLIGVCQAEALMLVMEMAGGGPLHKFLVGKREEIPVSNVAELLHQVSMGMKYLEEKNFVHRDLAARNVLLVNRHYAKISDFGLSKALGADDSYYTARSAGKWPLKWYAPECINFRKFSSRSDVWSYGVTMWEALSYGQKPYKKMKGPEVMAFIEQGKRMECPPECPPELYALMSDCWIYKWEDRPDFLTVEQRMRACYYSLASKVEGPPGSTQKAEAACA

[3] = target: T3, Zap70 D461N (full length, kinase-inactive) (human, UniProt P43403 1-619, D461N); assay: ELISA
T3 sequence (looked up): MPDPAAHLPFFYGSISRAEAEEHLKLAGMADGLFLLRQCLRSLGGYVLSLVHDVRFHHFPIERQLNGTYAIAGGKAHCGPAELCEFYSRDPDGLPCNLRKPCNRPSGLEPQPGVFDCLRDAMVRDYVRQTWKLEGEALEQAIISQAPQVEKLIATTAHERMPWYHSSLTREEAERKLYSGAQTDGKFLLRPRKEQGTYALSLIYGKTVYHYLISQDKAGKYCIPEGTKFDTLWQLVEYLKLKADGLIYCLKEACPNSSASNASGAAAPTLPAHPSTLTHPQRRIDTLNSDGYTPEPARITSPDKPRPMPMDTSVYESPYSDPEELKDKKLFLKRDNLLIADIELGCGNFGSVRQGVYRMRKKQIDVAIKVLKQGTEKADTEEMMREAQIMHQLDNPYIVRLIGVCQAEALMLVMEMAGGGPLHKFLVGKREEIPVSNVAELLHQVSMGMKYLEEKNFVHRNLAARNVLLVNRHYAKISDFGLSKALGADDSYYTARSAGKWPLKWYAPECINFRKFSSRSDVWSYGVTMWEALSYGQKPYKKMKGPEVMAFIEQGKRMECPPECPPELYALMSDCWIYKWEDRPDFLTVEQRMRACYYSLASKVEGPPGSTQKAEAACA

[4] = target: T4, wild-type Zap70 (full-length human Zap70) (human, UniProt P43403 1-619); assay: ELISA
T4 sequence (looked up): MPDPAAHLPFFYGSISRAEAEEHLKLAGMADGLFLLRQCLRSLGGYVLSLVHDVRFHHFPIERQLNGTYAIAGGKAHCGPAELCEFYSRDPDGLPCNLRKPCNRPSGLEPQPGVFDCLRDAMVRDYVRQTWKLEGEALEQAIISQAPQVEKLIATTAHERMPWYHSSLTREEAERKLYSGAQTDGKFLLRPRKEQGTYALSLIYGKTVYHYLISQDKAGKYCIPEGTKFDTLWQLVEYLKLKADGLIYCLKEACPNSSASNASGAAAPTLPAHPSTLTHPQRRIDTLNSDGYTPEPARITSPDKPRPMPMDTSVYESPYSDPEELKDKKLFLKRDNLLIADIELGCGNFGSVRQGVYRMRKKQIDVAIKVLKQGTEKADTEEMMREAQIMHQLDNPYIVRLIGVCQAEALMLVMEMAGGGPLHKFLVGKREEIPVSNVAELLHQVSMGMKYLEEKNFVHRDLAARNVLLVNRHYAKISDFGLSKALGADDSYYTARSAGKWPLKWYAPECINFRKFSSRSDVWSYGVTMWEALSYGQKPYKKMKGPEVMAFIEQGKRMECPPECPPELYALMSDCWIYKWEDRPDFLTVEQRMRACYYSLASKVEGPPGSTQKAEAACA

[5] = target: T4, wild-type Zap70 (full-length human …); assay: BLI
[6] = target: T1, Zap70 K369A (full length); assay: BLI
[7] = target: T2, Zap70 K369R (full length); assay: BLI
[8] = target: T3, Zap70 D461N (full length, …); assay: BLI

Measured: binding result

GGAGQDGVRQSRASDKQTLLPNDQLYQPLKDREDDQYSHLQGNQLRRN (domain or fragment, also: ITAM phosphorylated by Lck, sites not given here, GST fusion)
binds: [1] | [2] | [3] | [4]

C(Maleimide‑PEG2‑Biotin)AGQDGVRQSRASDKQTLLPNDQLYQPLKDREDDQYSHLQGNQLRRN (domain or fragment, also: ITAM phosphorylated by Lck, sites not given here) [bio-phosphorylated CD3γ^CD (biotinylated, phosphorylated cysCD3γ^CD, human CD3γ amino acids 137-182)]
binds: [5] | [6] | [7] | [8]
